Experimental data as given in patent US20250262210A1 (TRUSTEES OF COLUMBIA UNIVERSITY IN THE CITY OF NEW YORK, published 2025).

How the values were obtained:
Experiment in all cases: IP/MS, LZTR1 R810W-FLAG, U87
ELP1 = target: T1, ELP1 (human, UniProt O95163 1-1332)
T1 sequence (looked up): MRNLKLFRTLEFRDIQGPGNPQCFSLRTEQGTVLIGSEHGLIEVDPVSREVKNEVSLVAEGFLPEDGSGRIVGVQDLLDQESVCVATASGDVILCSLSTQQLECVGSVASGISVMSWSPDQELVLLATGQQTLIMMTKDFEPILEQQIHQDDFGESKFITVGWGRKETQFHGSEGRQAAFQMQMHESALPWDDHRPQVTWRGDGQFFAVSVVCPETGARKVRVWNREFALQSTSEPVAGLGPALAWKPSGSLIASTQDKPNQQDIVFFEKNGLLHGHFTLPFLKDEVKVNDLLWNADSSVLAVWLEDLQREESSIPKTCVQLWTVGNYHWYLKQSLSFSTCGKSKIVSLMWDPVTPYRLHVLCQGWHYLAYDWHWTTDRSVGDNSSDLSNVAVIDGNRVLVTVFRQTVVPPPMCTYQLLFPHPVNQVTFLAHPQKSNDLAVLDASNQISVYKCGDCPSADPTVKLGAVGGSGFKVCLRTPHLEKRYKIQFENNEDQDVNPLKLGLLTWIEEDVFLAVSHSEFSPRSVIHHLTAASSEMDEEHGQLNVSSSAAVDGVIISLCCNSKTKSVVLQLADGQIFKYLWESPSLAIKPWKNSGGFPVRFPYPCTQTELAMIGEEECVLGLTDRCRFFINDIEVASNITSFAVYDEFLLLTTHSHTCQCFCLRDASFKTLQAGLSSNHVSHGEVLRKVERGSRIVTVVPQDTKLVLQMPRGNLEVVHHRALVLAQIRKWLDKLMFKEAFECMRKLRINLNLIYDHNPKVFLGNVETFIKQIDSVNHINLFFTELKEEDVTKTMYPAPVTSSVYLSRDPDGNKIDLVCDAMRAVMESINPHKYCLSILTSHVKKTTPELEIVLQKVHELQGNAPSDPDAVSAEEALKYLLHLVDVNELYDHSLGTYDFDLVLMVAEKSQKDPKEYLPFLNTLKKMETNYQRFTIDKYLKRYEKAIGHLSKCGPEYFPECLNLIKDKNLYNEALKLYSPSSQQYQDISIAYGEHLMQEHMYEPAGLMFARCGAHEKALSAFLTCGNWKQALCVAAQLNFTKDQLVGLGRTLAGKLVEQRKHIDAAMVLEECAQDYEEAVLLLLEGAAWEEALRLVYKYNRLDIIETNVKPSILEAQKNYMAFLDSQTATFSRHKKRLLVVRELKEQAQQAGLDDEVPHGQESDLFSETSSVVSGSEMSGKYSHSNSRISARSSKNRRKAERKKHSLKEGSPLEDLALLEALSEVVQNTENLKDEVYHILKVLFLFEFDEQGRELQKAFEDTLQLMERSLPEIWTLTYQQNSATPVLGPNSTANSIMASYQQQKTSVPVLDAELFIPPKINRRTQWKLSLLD
How it was run: (§1)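 Gel slices were reduced with 5 mM DTT, alkylated with 11 mM IAA and digested overnight at 37° C. with trypsin. Peptides were analysed on an Orbitrap Fusion Tribrid by LC-MS/MS.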

CTDP1 = target: T2, CTDP1 (human, UniProt Q9Y5B0 1-961, limits assumed)
T2 sequence (looked up): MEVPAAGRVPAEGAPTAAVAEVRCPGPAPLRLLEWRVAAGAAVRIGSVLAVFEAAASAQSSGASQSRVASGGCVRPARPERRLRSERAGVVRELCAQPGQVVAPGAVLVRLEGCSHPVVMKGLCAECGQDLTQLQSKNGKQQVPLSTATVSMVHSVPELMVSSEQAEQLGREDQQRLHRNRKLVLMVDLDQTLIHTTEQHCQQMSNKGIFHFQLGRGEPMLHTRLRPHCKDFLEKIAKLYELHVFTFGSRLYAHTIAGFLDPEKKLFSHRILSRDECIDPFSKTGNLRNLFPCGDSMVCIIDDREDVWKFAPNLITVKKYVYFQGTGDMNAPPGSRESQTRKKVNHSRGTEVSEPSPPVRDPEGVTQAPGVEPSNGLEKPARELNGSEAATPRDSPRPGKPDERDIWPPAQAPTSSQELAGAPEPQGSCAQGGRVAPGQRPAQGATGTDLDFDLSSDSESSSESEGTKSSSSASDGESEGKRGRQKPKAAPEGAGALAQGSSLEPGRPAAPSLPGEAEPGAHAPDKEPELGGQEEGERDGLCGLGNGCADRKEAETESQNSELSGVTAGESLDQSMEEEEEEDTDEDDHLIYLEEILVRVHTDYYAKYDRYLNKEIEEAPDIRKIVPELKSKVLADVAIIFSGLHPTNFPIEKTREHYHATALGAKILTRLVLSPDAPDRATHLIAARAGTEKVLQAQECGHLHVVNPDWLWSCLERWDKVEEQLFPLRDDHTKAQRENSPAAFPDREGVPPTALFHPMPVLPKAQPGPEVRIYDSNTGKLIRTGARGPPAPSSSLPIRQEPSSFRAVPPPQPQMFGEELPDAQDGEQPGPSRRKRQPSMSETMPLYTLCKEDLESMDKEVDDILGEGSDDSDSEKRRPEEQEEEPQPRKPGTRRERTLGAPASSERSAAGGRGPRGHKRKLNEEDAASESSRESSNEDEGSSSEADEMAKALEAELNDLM
How it was run: as §1

KIF1B = KIF1B (human, UniProt O60333 2-1816, limits assumed)
How it was run: as §1

Measured: binding result

KIF1B, sequence (O60333 2-1816 limits assumed): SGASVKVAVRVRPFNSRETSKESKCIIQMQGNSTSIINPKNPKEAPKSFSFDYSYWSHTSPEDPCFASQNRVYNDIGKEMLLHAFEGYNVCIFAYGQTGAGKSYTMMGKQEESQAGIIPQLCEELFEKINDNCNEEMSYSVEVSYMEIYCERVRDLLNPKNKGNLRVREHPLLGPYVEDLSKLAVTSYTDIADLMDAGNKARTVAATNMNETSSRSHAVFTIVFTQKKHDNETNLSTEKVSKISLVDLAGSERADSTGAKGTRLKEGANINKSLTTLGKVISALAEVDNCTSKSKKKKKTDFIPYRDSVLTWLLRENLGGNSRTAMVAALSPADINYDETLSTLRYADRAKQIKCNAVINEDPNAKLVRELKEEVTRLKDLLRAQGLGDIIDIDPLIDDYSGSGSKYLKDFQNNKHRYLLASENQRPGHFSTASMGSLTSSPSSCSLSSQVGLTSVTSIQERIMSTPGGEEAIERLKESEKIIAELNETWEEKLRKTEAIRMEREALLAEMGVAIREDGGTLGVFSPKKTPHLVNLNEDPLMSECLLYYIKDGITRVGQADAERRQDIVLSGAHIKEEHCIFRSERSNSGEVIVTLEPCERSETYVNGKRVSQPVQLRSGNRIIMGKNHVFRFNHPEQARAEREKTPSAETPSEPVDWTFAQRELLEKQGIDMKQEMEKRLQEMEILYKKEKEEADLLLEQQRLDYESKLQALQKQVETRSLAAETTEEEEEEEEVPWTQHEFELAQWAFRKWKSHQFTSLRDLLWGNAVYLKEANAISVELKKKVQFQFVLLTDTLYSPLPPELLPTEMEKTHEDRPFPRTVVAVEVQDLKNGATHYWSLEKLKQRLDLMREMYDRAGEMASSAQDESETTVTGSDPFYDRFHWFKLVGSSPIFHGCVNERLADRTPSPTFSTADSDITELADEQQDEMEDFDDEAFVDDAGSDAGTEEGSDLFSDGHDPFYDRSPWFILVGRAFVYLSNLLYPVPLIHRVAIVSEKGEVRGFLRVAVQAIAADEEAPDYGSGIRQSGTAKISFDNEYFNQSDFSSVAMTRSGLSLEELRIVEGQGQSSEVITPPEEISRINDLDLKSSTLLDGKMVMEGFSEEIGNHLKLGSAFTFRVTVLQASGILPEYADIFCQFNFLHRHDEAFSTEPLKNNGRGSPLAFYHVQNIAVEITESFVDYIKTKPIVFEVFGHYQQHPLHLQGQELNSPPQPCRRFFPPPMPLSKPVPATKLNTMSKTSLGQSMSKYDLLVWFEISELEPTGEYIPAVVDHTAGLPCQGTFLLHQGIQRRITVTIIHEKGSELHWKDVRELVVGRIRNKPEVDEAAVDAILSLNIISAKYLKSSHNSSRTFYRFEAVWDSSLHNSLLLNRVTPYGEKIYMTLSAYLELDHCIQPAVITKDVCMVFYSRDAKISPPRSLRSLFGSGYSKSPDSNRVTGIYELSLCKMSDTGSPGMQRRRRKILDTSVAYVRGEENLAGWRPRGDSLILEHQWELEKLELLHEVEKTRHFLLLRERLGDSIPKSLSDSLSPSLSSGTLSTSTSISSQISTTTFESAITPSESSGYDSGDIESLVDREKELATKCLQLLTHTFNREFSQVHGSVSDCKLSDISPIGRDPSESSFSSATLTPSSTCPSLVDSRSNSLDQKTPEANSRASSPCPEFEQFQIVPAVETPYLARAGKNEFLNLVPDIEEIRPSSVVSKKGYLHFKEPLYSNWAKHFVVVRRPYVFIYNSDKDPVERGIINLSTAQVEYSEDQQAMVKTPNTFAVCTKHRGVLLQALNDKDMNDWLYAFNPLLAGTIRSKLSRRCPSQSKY

B1: LZTR1 R810W-FLAG (other, human, UniProt Q8N653 1-840, looked up)
chain: MAGPGSTGGQIGAAALAGGARSKVAPSVDFDHSCSDSVEYLTLNFGPFETVHRWRRLPPCDEFVGARRSKHTVVAYKDAIYVFGGDNGKTMLNDLLRFDVKDCSWCRAFTTGTPPAPRYHHSAVVYGSSMFVFGGYTGDIYSNSNLKNKNDLFEYKFATGQWTEWKIEGRLPVARSAHGATVYSDKLWIFAGYDGNARLNDMWTIGLQDRELTCWEEVAQSGEIPPSCCNFPVAVCRDKMFVFSGQSGAKITNNLFQFEFKDKTWTRIPTEHLLRGSPPPPQRRYGHTMVAFDRHLYVFGGAADNTLPNELHCYDVDFQTWEVVQPSSDSEVGGAEVPERACASEEVPTLTYEERVGFKKSRDVFGLDFGTTSAKQPTQPASELPSGRLFHAAAVISDAMYIFGGTVDNNIRSGEMYRFQFSCYPKCTLHEDYGRLWESRQFCDVEFVLGEKEECVQGHVAIVTARSRWLRRKITQARERLAQKLEQEAAPVPREAPGVAAGGARPPLLHVAIREAEARPFEVLMQFLYTDKIKYPRKGHVEDVLLIMDVYKLALSFQLCRLEQLCRQYIEASVDLQNVLVVCESAARLQLSQLKEHCLNFVVKESHFNQVIMMKEFERLSSPLIVEIVRRKQQPPPRTPLDQPVDIGTSLIQDMKAYLEGAGAEFCDITLLLDGHPRPAHKAILAARSSYFEAMFRSFMPEDGQVNISIGEMVPSRQAFESMLRYIYYGEVNMPPEDSLYLFAAPYYYGFYNNRLQAYCKQNLEMNVTVQNVLQILEAADKTQALDMKRHCLHIIVHQFTKVSKLPTLWSLSQQLLLDIIDSLASHISDKQCAELGADI
notes: Stably expressed in U87 cells by lentivirus; also called LZTR1-FLAG-R810W; LZTR1 RW; not shown: FLAG tag
binds: all assays above
